Reference: doi:10.1101/2024.12.13.628329 (bioRxiv, 2024)

Target: the molecule itself
Assay: SEC

B1: TNFR1^R347A death domain (domain or fragment, UniProt P19438 356-441, looked up)
chain: PATLYAVVENVPPLRWKEFVARLGLSDHEIDRLELQNGRCLREAQYSMLATWRRRTPRREATLELLGRVLRDMDLLGCLEDIEEAL
- stoichiometry N: 2
